Key:
Assay in all cases: two-hybrid library CCmax;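 note: natural log of median RNA to DNA barcode read ratio; higher means stronger binding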
4H2736-AA = molecular target: T1, 4H2736-AA; conditions: mean of both orientations
T1 chain: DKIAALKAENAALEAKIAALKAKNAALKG

4H1350-AA = molecular target: T2, 4H1350-AA; conditions: mean of both orientations
T2 chain: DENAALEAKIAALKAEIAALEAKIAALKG

4H3590-AA = molecular target: T3, 4H3590-AA; conditions: mean of both orientations
T3 chain: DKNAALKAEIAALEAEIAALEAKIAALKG

4H3049-AA = molecular target: T4, 4H3049-AA; conditions: mean of both orientations
T4 chain: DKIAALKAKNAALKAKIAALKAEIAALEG

4H_GCN4 = conditions: mean of both orientations
4H_GCN4, sequence (chain, as listed by the source): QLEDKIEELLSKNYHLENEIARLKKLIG

O11-AA = molecular target: T5, O11-AA
T5 chain: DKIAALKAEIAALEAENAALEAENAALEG

4H2888-AA = molecular target: T6, 4H2888-AA; conditions: mean of both orientations
T6 chain: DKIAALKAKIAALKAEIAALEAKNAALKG

4H510-AA = molecular target: T7, 4H510-AA; conditions: mean of both orientations
T7 chain: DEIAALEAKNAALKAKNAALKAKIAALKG

4H3905-AA = molecular target: T8, 4H3905-AA; conditions: mean of both orientations
T8 chain: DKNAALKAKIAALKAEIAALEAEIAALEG

4H1392-AA = molecular target: T9, 4H1392-AA; conditions: mean of both orientations
T9 chain: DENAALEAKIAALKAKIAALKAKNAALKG

4H384-AA = molecular target: T10, 4H384-AA
T10 chain: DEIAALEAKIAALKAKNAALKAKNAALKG

4H_BCR = molecular target: T11, 4H_BCR; conditions: mean of both orientations
T11 chain: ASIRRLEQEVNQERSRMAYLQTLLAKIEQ

4H1385-AA = molecular target: T12, 4H1385-AA; conditions: mean of both orientations
T12 chain: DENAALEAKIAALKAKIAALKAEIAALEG

O13-AA = molecular target: T13, O13-AA; conditions: mean of both orientations
T13 chain: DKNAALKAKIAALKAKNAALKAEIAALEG

4H4038-AA = molecular target: T14, 4H4038-AA; conditions: mean of both orientations
T14 chain: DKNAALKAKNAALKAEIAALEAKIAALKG

O14-AA = molecular target: T15, O14-AA; conditions: mean of both orientations
T15 chain: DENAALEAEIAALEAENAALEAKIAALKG

4H43-AA = molecular target: T16, 4H43-AA; conditions: mean of both orientations
T16 chain: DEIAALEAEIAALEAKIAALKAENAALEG

4H2705-AA = molecular target: T17, 4H2705-AA; conditions: mean of both orientations
T17 chain: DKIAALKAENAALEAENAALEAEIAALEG

4H134-AA = molecular target: T18, 4H134-AA; conditions: mean of both orientations
T18 chain: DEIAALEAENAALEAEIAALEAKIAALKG

4H2622-AA = molecular target: T19, 4H2622-AA; conditions: mean of both orientations
T19 chain: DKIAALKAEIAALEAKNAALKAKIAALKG

4H451-AA = molecular target: T20, 4H451-AA; conditions: mean of both orientations
T20 chain: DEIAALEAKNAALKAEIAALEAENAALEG

GCN2_T = molecular target: GCN2_T
4H3625-AA = molecular target: T21, 4H3625-AA; conditions: mean of both orientations
T21 chain: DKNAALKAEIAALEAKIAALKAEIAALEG

4H1193-AA = molecular target: T22, 4H1193-AA; conditions: mean of both orientations
T22 chain: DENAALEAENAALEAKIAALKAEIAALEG

4H337-AA = molecular target: T23, 4H337-AA; conditions: mean of both orientations
T23 chain: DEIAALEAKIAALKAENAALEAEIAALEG

4H3587-AA = molecular target: T24, 4H3587-AA; conditions: mean of both orientations
T24 chain: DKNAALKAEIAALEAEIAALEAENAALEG

4H1070-AA = molecular target: T25, 4H1070-AA
T25 chain: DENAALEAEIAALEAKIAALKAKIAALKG

interaction score (4H2736-AA): -0.965 | interaction score (4H1350-AA): 1.96 | interaction score (4H3590-AA): 2.25 | interaction score (4H3049-AA): 0.86 | interaction score (4H_GCN4): -1.5 | interaction score (O11-AA): 1.22 | interaction score (4H2888-AA): 1.51 | interaction score (4H510-AA): -1.68 | interaction score (4H3905-AA): 2.23 | interaction score (4H1392-AA): -0.733 | interaction score (4H384-AA): -0.364 | interaction score (4H_BCR): -1.54 | interaction score (4H1385-AA): 1.6 | interaction score (O13-AA): -0.784 | interaction score (4H4038-AA): 1.53 | interaction score (O14-AA): 0.236 | interaction score (4H43-AA): 1.94 | interaction score (4H2705-AA): -1.19 | interaction score (4H134-AA): 1.2 | interaction score (4H2622-AA): 1.21 | interaction score (4H451-AA): -1.11 | interaction score (GCN2_T): -0.746 | interaction score (4H3625-AA): 1.73 | interaction score (4H1193-AA): -0.64 | interaction score (4H337-AA): 0.472 | interaction score (4H3587-AA): 1.56 | interaction score (4H1070-AA): 2.05
Binder: DENAALEAEIAALEAKIAALKAKIAALKG [4H1070-AA]

From article PMC10397247
